Read-outs that look alike come from different tables or passages of the source.
What was measured:
Test in all cases: activation reporter or marker
[1] = target: T1, HA69 peptide on HLA DQB1*06:02/DQA1*01:02 (DQ0602) (human)
T1 peptide: AMERNAGSGIIISDT

[2] = target: T2, hemagglutinin (HA) of pandemic 2009 H1N1 (pHA, HA69) peptide on HLA-DQA1*01:02 / HLA-DQB1*06:02 (human)
T2 peptide: AMERNAGSGIIISDT

[3] = target: T3, hemagglutinin (HA) of pandemic 2009 H1N1 (pHA, HA69) peptide on HLA-DQA1*01:02 / HLA-DQB1*06:02 (human)
T3 peptide: AMERNAGSGIIISDT

Binder | binding result [1] | binding result [2] | binding result [3]
TCR43 (TCR) alpha TRAV13-1 TRAJ43 CDR3: CAASDNDMRF beta TRBV4-2 TRBJ1-2 CDR3: CASSQETQGRNYGYTF | recognises | recognises | –
TCR275 (TCR) alpha TRAV13-1 TRAJ43 CDR3: CAANNNDMRF beta TRBV4-2 TRBJ1-2 CDR3: CASSQETQGRNYGYTF | recognises | recognises | –
TCR CAVSPGNNQGGKLIF / CASSTQGAGEAFF (TCR) alpha TRAV8-2 TRAJ23 CDR3: CAVSPGNNQGGKLIF beta TRBV19 TRBJ1-1 CDR3: CASSTQGAGEAFF | – | – | no recognition
TCR CAVSDNPRVQGAQKLVF / CSAAGTGGAGTEAFF (TCR) alpha TRAV8-6 TRAJ54 CDR3: CAVSDNPRVQGAQKLVF beta TRBV29-1 TRBJ1-1 CDR3: CSAAGTGGAGTEAFF | – | – | no recognition
TCR CIVRVLTNQGGKLIF / CASSFQGLSTDTQYF (TCR) alpha TRAV26-1 TRAJ23 CDR3: CIVRVLTNQGGKLIF beta TRBV12-3 TRBJ2-3 CDR3: CASSFQGLSTDTQYF | – | – | no recognition
TCR CAVSDGGTSYGKLTF / CASSQGNTGHSPLHF (TCR) alpha TRAV8-6 TRAJ52 CDR3: CAVSDGGTSYGKLTF beta TRBV4-3 TRBJ1-6 CDR3: CASSQGNTGHSPLHF | – | – | no recognition
TCR CIVRVATNQAGTALIF / CASSTQGAFAEAFF (TCR) alpha TRAV26-1 TRAJ15 CDR3: CIVRVATNQAGTALIF beta TRBV19 TRBJ1-1 CDR3: CASSTQGAFAEAFF | – | – | no recognition
TCR CIVRVGTNQGGKLIF / CASSQDRAGTNTEAFF (TCR) alpha TRAV26-1 TRAJ23 CDR3: CIVRVGTNQGGKLIF beta TRBV4-2 TRBJ1-1 CDR3: CASSQDRAGTNTEAFF | – | – | no recognition
TCR CIVRVGTNQAGTALIF / CASREQGLDYGYTF (TCR) alpha TRAV26-1 TRAJ15 CDR3: CIVRVGTNQAGTALIF beta TRBV19 TRBJ1-2 CDR3: CASREQGLDYGYTF | – | – | no recognition
TCR CALSGDNAGNNRKLIW / CASNSRLAGGHVAYNEQFF (TCR) alpha TRAV19 TRAJ38 CDR3: CALSGDNAGNNRKLIW beta TRBV12-3 TRBJ2-1 CDR3: CASNSRLAGGHVAYNEQFF | – | – | no recognition
TCR CAGSPSQGGSEKLVF / CSARPLGTSGRDEQFF (TCR) alpha TRAV35 TRAJ57 CDR3: CAGSPSQGGSEKLVF beta TRBV20-1 TRBJ2-1 CDR3: CSARPLGTSGRDEQFF | no recognition | – | no recognition
TCR CAMRGQDSGYSTLTF / CASSIVRGLYSNQPQHF (TCR) alpha TRAV14/DV4 TRAJ11 CDR3: CAMRGQDSGYSTLTF beta TRBV19 TRBJ1-5 CDR3: CASSIVRGLYSNQPQHF | – | – | no recognition
TCR CLVGDMEYGNKLVF / CASSQAPPSGNEQFF (TCR) alpha TRAV4 TRAJ47 CDR3: CLVGDMEYGNKLVF beta TRBV4-2 TRBJ2-1 CDR3: CASSQAPPSGNEQFF | – | – | no recognition
TCR CIVRANTGNQFYF / CASSPDGTGVGNTIYF (TCR) alpha TRAV26-1 TRAJ49 CDR3: CIVRANTGNQFYF beta TRBV4-2 TRBJ1-3 CDR3: CASSPDGTGVGNTIYF | – | – | no recognition
TCR CATGSYNTDKLIF / CASSPDGTGVGNTIYF (TCR) alpha TRAV17 TRAJ34 CDR3: CATGSYNTDKLIF beta TRBV4-2 TRBJ1-3 CDR3: CASSPDGTGVGNTIYF | – | – | no recognition
TCR CVVSEPGTYKYIF / CASSPDGTGVGNTIYF (TCR) alpha TRAV8-2 TRAJ40 CDR3: CVVSEPGTYKYIF beta TRBV4-2 TRBJ1-3 CDR3: CASSPDGTGVGNTIYF | – | – | no recognition
TCR CIVRVATNQGGKLIF / CASSPQGGLAEQYF (TCR) alpha TRAV26-1 TRAJ23 CDR3: CIVRVATNQGGKLIF beta TRBV19 TRBJ2-7 CDR3: CASSPQGGLAEQYF | – | – | no recognition
TCR CAVSGGNAGNMLTF / CATQKGDRGQSWGYTF (TCR) alpha TRAV2 TRAJ39 CDR3: CAVSGGNAGNMLTF beta TRBV6-1 TRBJ1-2 CDR3: CATQKGDRGQSWGYTF | – | – | no recognition
TCR CATDTENNARLMF / CSAGGAGPKMQYF (TCR) alpha TRAV17 TRAJ31 CDR3: CATDTENNARLMF beta TRBV20-1 TRBJ2-7 CDR3: CSAGGAGPKMQYF | – | – | no recognition
TCR CVVNGEAPGNQFYF / CASSVASSSYNEQFF (TCR) alpha TRAV12-1 TRAJ49 CDR3: CVVNGEAPGNQFYF beta TRBV4-2 TRBJ2-1 CDR3: CASSVASSSYNEQFF | – | – | no recognition
TCR CAARQMDSSYKLIF / CASSVASSSYNEQFF (TCR) alpha TRAV23/DV6 TRAJ12 CDR3: CAARQMDSSYKLIF beta TRBV4-2 TRBJ2-1 CDR3: CASSVASSSYNEQFF | – | – | no recognition
TCR CIVRVVSNQGGKLIF / CASSPQGFDYGYTF (TCR) alpha TRAV26-1 TRAJ23 CDR3: CIVRVVSNQGGKLIF beta TRBV19 TRBJ1-2 CDR3: CASSPQGFDYGYTF | – | – | no recognition
TCR CATDAELGNKLVF / CASSQDRGRGTDTQYF (TCR) alpha TRAV17 TRAJ47 CDR3: CATDAELGNKLVF beta TRBV4-2 TRBJ2-3 CDR3: CASSQDRGRGTDTQYF | recognises | – | –
TCR CILRDVLSNFGNEKLTF / CASSQASVSVDTQYF (TCR) alpha TRAV26-2 TRAJ48 CDR3: CILRDVLSNFGNEKLTF beta TRBV4-2 TRBJ2-3 CDR3: CASSQASVSVDTQYF | recognises | – | –
TCR285 (TCR) alpha TRAV13-1 TRAJ49 CDR3: CAATPGRTGNQFYF beta TRBV4-2 TRBJ2-5 CDR3: CASSQGQGDETQYF | recognises | – | –
TCR CAAADTGNQFYF / CASSSHGQGNQPQHF (TCR) alpha TRAV13-1 TRAJ49 CDR3: CAAADTGNQFYF beta TRBV7-8 TRBJ1-5 CDR3: CASSSHGQGNQPQHF | recognises | – | –
TCR CAATDTGNQFYF / CASSQHGQGNQPQHF (TCR) alpha TRAV13-1 TRAJ49 CDR3: CAATDTGNQFYF beta TRBV7-8 TRBJ1-5 CDR3: CASSQHGQGNQPQHF | recognises | – | –

Binder | binding result [1] | binding result [2] | binding result [3]
TCR CALTMKTSYDKVIF / CASSIGTSGPDTQYF (TCR) alpha TRAV9-2 TRAJ50 CDR3: CALTMKTSYDKVIF beta TRBV19 TRBJ2-3 CDR3: CASSIGTSGPDTQYF | recognises | – | –
TCR CAASRGTSYDKVIF / CSATGLYNEQFF (TCR) alpha TRAV13-1 TRAJ50 CDR3: CAASRGTSYDKVIF beta TRBV20-1 TRBJ2-1 CDR3: CSATGLYNEQFF | recognises | – | –
TCR CAASRGTSYDKVIF / CSVRGLYNEQFF (TCR) alpha TRAV13-1 TRAJ50 CDR3: CAASRGTSYDKVIF beta TRBV29-1 TRBJ2-1 CDR3: CSVRGLYNEQFF | recognises | – | –
TCR CAASRGTSYDKVIF / CSTQRLYNEQFF (TCR) alpha TRAV13-1 TRAJ50 CDR3: CAASRGTSYDKVIF beta TRBV29-1 TRBJ2-1 CDR3: CSTQRLYNEQFF | recognises | – | –
TCR CAASRGTSYDKVIF / CSVDRYYNEQFF (TCR) alpha TRAV13-1 TRAJ50 CDR3: CAASRGTSYDKVIF beta TRBV29-1 TRBJ2-1 CDR3: CSVDRYYNEQFF | recognises | – | –
TCR861 (TCR) alpha TRAV13-1 TRAJ50 CDR3: CAASRGTSYDKVIF beta TRBV29-1 TRBJ2-1 CDR3: CSVRSLYNEQFF | recognises | – | –
TCR CIVRAGGTSYGKLTF / CAWSPLAGTGAPQPQHF (TCR) alpha TRAV26-1 TRAJ52 CDR3: CIVRAGGTSYGKLTF beta TRBV30 TRBJ1-5 CDR3: CAWSPLAGTGAPQPQHF | recognises | – | –
TCR CAGKENSGGSNYKLTF / CASRVQGARAEAFF (TCR) alpha TRAV25 TRAJ53 CDR3: CAGKENSGGSNYKLTF beta TRBV19 TRBJ1-1 CDR3: CASRVQGARAEAFF | recognises | – | –
TCR CAGRPTSGGSNYKLTF / CASSGGQAYYGYTF (TCR) alpha TRAV35 TRAJ53 CDR3: CAGRPTSGGSNYKLTF beta TRBV19 TRBJ1-2 CDR3: CASSGGQAYYGYTF | recognises | – | –
TCR CAGRPNSGGSNYKLTF / CASSGQQALYGYTF (TCR) alpha TRAV35 TRAJ53 CDR3: CAGRPNSGGSNYKLTF beta TRBV19 TRBJ1-2 CDR3: CASSGQQALYGYTF | recognises | – | –
TCR CAGRPNSGGSNYKLTF / CASSDQAAWAGYTF (TCR) alpha TRAV35 TRAJ53 CDR3: CAGRPNSGGSNYKLTF beta TRBV19 TRBJ1-2 CDR3: CASSDQAAWAGYTF | recognises | – | –
TCR CAAVGMNGGAQKLVF / CASRSQGWGTEAFF (TCR) alpha TRAV13-1 TRAJ54 CDR3: CAAVGMNGGAQKLVF beta TRBV19 TRBJ1-1 CDR3: CASRSQGWGTEAFF | recognises | – | –
TCR CAMREGHIQGAQKLVF / CASSSGNLNTEAFF (TCR) alpha TRAV14/DV4 TRAJ54 CDR3: CAMREGHIQGAQKLVF beta TRBV19 TRBJ1-1 CDR3: CASSSGNLNTEAFF | recognises | – | –
TCR CAVSERGAQKLVF / CSAPSGGGRASGANVLTF (TCR) alpha TRAV8-6 TRAJ54 CDR3: CAVSERGAQKLVF beta TRBV20-1 TRBJ2-6 CDR3: CSAPSGGGRASGANVLTF | recognises | – | –
TCR846 (TCR) alpha TRAV8-6 TRAJ54 CDR3: CAVSESAQGAQKLVF beta TRBV19 TRBJ2-3 CDR3: CASSRPGLNTDTQYF | recognises | – | –
TCR CATGHTGANSKLTF / CASSLQGTPNGNQPQHF (TCR) alpha TRAV17 TRAJ56 CDR3: CATGHTGANSKLTF beta TRBV19 TRBJ1-5 CDR3: CASSLQGTPNGNQPQHF | recognises | – | –
TCR CAVEETSGSRLTF / CASSQPDTRADTQYF (TCR) alpha TRAV39 TRAJ58 CDR3: CAVEETSGSRLTF beta TRBV4-2 TRBJ2-3 CDR3: CASSQPDTRADTQYF | recognises | – | –
TCR CIVRSQGGSYIPTF / CATSRDTMTSIGTDTQYF (TCR) alpha TRAV26-1 TRAJ6 CDR3: CIVRSQGGSYIPTF beta TRBV15 TRBJ2-3 CDR3: CATSRDTMTSIGTDTQYF | recognises | – | –
TCR CAVSEKNTGFQKLVF / CASRKGLGDTDTQYF (TCR) alpha TRAV8-6 TRAJ8 CDR3: CAVSEKNTGFQKLVF beta TRBV6-1 TRBJ2-3 CDR3: CASRKGLGDTDTQYF | recognises | – | –
TCR755 (TCR) alpha TRAV12-3 TRAJ8 CDR3: CAMSETRFQKLVF beta TRBV19 TRBJ2-7 CDR3: CASSSTGGNYEQYF | recognises | – | –
TCR CAVSPSDSWGKLQF / CASSYPGLSQETQYF (TCR) alpha TRAV8-2 TRAJ24 CDR3: CAVSPSDSWGKLQF beta TRBV5-5 TRBJ2-5 CDR3: CASSYPGLSQETQYF | – | – | no recognition
TCR CALSPDSWGKLQF / CASSTRAPTRTGEKLFF (TCR) alpha TRAV6 TRAJ24 CDR3: CALSPDSWGKLQF beta TRBV7-9 TRBJ1-4 CDR3: CASSTRAPTRTGEKLFF | – | – | no recognition
…-1 (TCR) alpha TRAV8-3 TRAJ24 CDR3: CAVGLTDSWGKLQF beta TRBV19 TRBJ2-1 CDR3: CASSFSKNGNSYNEQFF | no recognition | – | –
…-1 (TCR) alpha TRAV8-6 TRAJ24 CDR3: CAVSEDDSWGKLQF beta TRBV29-1 TRBJ1-6 CDR3: CSVARDRNSPLHF | no recognition | – | –
TCR CAVGSTDSWGKLQF / CASRLDPTGHMNTEAFF (TCR) alpha TRAV8-3 TRAJ24 CDR3: CAVGSTDSWGKLQF beta TRBV19 TRBJ1-1 CDR3: CASRLDPTGHMNTEAFF | recognises | – | –
TCR CAVNRADSWGKLQF / CASSIDKTGHSNQPQHF (TCR) alpha TRAV12-2 TRAJ24 CDR3: CAVNRADSWGKLQF beta TRBV19 TRBJ1-5 CDR3: CASSIDKTGHSNQPQHF | recognises | – | –
TCR108 (TCR) alpha TRAV8-3 TRAJ24 CDR3: CAVGFTDSWGKLQF beta TRBV19 TRBJ2-1 CDR3: CASSIDPSGNHYNEQFF | recognises | – | –
